Tested on: Escherichia coli TOP10
Test: shrunken log2 fold change of peptide-encoding DNA abundance (4.5 h post-induction vs induction); higher = less antimicrobial activity (less host growth inhibition)
Details: time post-induction: 4.5 h; library: site-saturation at positions 5, 18, 19, 20
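Also: peptides expressed intracellularly from a pBAD plasmid library in pooled LB shake-flask culture, induced with 0.3% L-arabinose, DNA abundance read by NGS, three biological replicates, DESeq2 with apeglm shrinkage.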

For RRIRRRPPRLPRPRPRPRCDPRP, the “shrunken log2 fold change” value was 0.306.

For RRIRRRPPRLPRPRPRPRCKPRP, the “shrunken log2 fold change” value was 0.358.

With RRIRRRPPRLPRPRPRPRCNPRP the “shrunken log2 fold change” value was -0.223.

With RRIRRRPPRLPRPRPRPRDVPRP the “shrunken log2 fold change” value was 0.328.

RRIRRRPPRLPRPRPRPRERPRP was tested, and the “shrunken log2 fold change” value was 1.02.

For RRIRRRPPRLPRPRPRPREWPRP, the “shrunken log2 fold change” value was 1.03.

For RRIRRRPPRLPRPRPRPRFAPRP, the “shrunken log2 fold change” value was 0.616.

In the case of RRIRRRPPRLPRPRPRPRFIPRP, the “shrunken log2 fold change” value is reported as 0.00289.

For RRIRRRPPRLPRPRPRPRGGPRP, the “shrunken log2 fold change” value was 0.509.

In the case of RRIRRRPPRLPRPRPRPRHIPRP, the “shrunken log2 fold change” value is reported as 0.945.

RRIRRRPPRLPRPRPRPRHQPRP was tested, and the “shrunken log2 fold change” value was 0.277.

With RRIRRRPPRLPRPRPRPRIAPRP the “shrunken log2 fold change” value was 0.652.

In the case of RRIRRRPPRLPRPRPRPRIPPRP, the “shrunken log2 fold change” value is reported as 0.209.

For RRIRRRPPRLPRPRPRPRKNPRP, the “shrunken log2 fold change” value was 0.179.

With RRIRRRPPRLPRPRPRPRNFPRP the “shrunken log2 fold change” value was 0.306.

RRIRRRPPRLPRPRPRPRNGPRP was tested, and the “shrunken log2 fold change” value was 0.144.

With RRIRRRPPRLPRPRPRPRNTPRP the “shrunken log2 fold change” value was 0.436.

With RRIRRRPPRLPRPRPRPRPAPRP the “shrunken log2 fold change” value was 1.83.

For RRIRRRPPRLPRPRPRPRQKPRP, the “shrunken log2 fold change” value was 0.857.

For RRIRRRPPRLPRPRPRPRQSPRP, the “shrunken log2 fold change” value was 0.243.

For RRIRRRPPRLPRPRPRPRRAPRP, the “shrunken log2 fold change” value was 0.655.

RRIRRRPPRLPRPRPRPRRHPRP was tested, and the “shrunken log2 fold change” value was 0.218.

For RRIRRRPPRLPRPRPRPRRSPRP, the “shrunken log2 fold change” value was 0.516.

For RRIRRRPPRLPRPRPRPRSQPRP, the “shrunken log2 fold change” value was 0.533.

With RRIRRRPPRLPRPRPRPRSVPRP the “shrunken log2 fold change” value was 0.234.

RRIRRRPPRLPRPRPRPRVGPRP was tested, and the “shrunken log2 fold change” value was 0.68.

In the case of RRIRRRPPRLPRPRPRPRVRPRP, the “shrunken log2 fold change” value is reported as 0.649.

For RRIRRRPPRLPRPRPRPRYLPRP, the “shrunken log2 fold change” value was -0.0373.

For RRIRRRPPRLPRPRPRPRYNPRP, the “shrunken log2 fold change” value was -0.132.

With RRIRRRPPRLPRPRPRPSAFPRP the “shrunken log2 fold change” value was 1.27.

With RRIRRRPPRLPRPRPRPSCFPRP the “shrunken log2 fold change” value was -0.0896.

RRIRRRPPRLPRPRPRPSCMPRP was tested, and the “shrunken log2 fold change” value was 0.019.

In the case of RRIRRRPPRLPRPRPRPSDAPRP, the “shrunken log2 fold change” value is reported as -0.0697.

In the case of RRIRRRPPRLPRPRPRPSDCPRP, the “shrunken log2 fold change” value is reported as -0.0825.

In the case of RRIRRRPPRLPRPRPRPSDNPRP, the “shrunken log2 fold change” value is reported as -0.134.

For RRIRRRPPRLPRPRPRPSDRPRP, the “shrunken log2 fold change” value was -0.153.

RRIRRRPPRLPRPRPRPSEPPRP was tested, and the “shrunken log2 fold change” value was 0.115.

For RRIRRRPPRLPRPRPRPSFGPRP, the “shrunken log2 fold change” value was 0.365.

In the case of RRIRRRPPRLPRPRPRPSFSPRP, the “shrunken log2 fold change” value is reported as -0.411.

RRIRRRPPRLPRPRPRPSFVPRP was tested, and the “shrunken log2 fold change” value was -0.0435.

For RRIRRRPPRLPRPRPRPSGCPRP, the “shrunken log2 fold change” value was 0.212.

With RRIRRRPPRLPRPRPRPSHCPRP the “shrunken log2 fold change” value was -0.041.

RRIRRRPPRLPRPRPRPSHFPRP was tested, and the “shrunken log2 fold change” value was -0.262.

With RRIRRRPPRLPRPRPRPSHMPRP the “shrunken log2 fold change” value was 0.157.

In the case of RRIRRRPPRLPRPRPRPSIIPRP, the “shrunken log2 fold change” value is reported as -0.332.

In the case of RRIRRRPPRLPRPRPRPSINPRP, the “shrunken log2 fold change” value is reported as -0.13.

In the case of RRIRRRPPRLPRPRPRPSKAPRP, the “shrunken log2 fold change” value is reported as -0.0721.

RRIRRRPPRLPRPRPRPSKEPRP was tested, and the “shrunken log2 fold change” value was 0.137.

For RRIRRRPPRLPRPRPRPSLCPRP, the “shrunken log2 fold change” value was 1.05.

For RRIRRRPPRLPRPRPRPSLQPRP, the “shrunken log2 fold change” value was 0.334.

With RRIRRRPPRLPRPRPRPSLTPRP the “shrunken log2 fold change” value was -0.0192.

RRIRRRPPRLPRPRPRPSMFPRP was tested, and the “shrunken log2 fold change” value was -0.0509.

In the case of RRIRRRPPRLPRPRPRPSNWPRP, the “shrunken log2 fold change” value is reported as -0.192.

RRIRRRPPRLPRPRPRPSPDPRP was tested, and the “shrunken log2 fold change” value was 0.608.

For RRIRRRPPRLPRPRPRPSQLPRP, the “shrunken log2 fold change” value was 0.448.

In the case of RRIRRRPPRLPRPRPRPSRTPRP, the “shrunken log2 fold change” value is reported as 0.141.

With RRIRRRPPRLPRPRPRPSSPPRP the “shrunken log2 fold change” value was 0.00935.

RRIRRRPPRLPRPRPRPSTEPRP was tested, and the “shrunken log2 fold change” value was 0.664.

With RRIRRRPPRLPRPRPRPSTHPRP the “shrunken log2 fold change” value was 0.0934.

RRIRRRPPRLPRPRPRPSVCPRP was tested, and the “shrunken log2 fold change” value was 0.0243.

With RRIRRRPPRLPRPRPRPSVEPRP the “shrunken log2 fold change” value was 0.0256.

RRIRRRPPRLPRPRPRPTACPRP was tested, and the “shrunken log2 fold change” value was 0.636.

For RRIRRRPPRLPRPRPRPTAFPRP, the “shrunken log2 fold change” value was 1.31.

For RRIRRRPPRLPRPRPRPTAGPRP, the “shrunken log2 fold change” value was 0.109.

For RRIRRRPPRLPRPRPRPTAVPRP, the “shrunken log2 fold change” value was 0.606.

RRIRRRPPRLPRPRPRPTCVPRP was tested, and the “shrunken log2 fold change” value was 0.455.

In the case of RRIRRRPPRLPRPRPRPTDEPRP, the “shrunken log2 fold change” value is reported as 0.355.

With RRIRRRPPRLPRPRPRPTDPPRP the “shrunken log2 fold change” value was 0.246.

RRIRRRPPRLPRPRPRPTECPRP was tested, and the “shrunken log2 fold change” value was 0.0801.

For RRIRRRPPRLPRPRPRPTEYPRP, the “shrunken log2 fold change” value was 0.0398.

With RRIRRRPPRLPRPRPRPTFCPRP the “shrunken log2 fold change” value was 0.0676.

With RRIRRRPPRLPRPRPRPTFHPRP the “shrunken log2 fold change” value was 0.0529.

For RRIRRRPPRLPRPRPRPTFVPRP, the “shrunken log2 fold change” value was 0.998.

With RRIRRRPPRLPRPRPRPTFWPRP the “shrunken log2 fold change” value was 0.436.

In the case of RRIRRRPPRLPRPRPRPTGQPRP, the “shrunken log2 fold change” value is reported as 0.675.

With RRIRRRPPRLPRPRPRPTHKPRP the “shrunken log2 fold change” value was 0.783.

For RRIRRRPPRLPRPRPRPTIEPRP, the “shrunken log2 fold change” value was 0.212.

RRIRRRPPRLPRPRPRPTIWPRP was tested, and the “shrunken log2 fold change” value was 0.251.

RRIRRRPPRLPRPRPRPTKSPRP was tested, and the “shrunken log2 fold change” value was 0.226.

With RRIRRRPPRLPRPRPRPTMKPRP the “shrunken log2 fold change” value was 0.286.

With RRIRRRPPRLPRPRPRPTMLPRP the “shrunken log2 fold change” value was 0.0234.

For RRIRRRPPRLPRPRPRPTNKPRP, the “shrunken log2 fold change” value was 0.149.

With RRIRRRPPRLPRPRPRPTNSPRP the “shrunken log2 fold change” value was 1.15.

With RRIRRRPPRLPRPRPRPTPHPRP the “shrunken log2 fold change” value was 0.884.

For RRIRRRPPRLPRPRPRPTPIPRP, the “shrunken log2 fold change” value was 1.03.

For RRIRRRPPRLPRPRPRPTRYPRP, the “shrunken log2 fold change” value was 0.337.

In the case of RRIRRRPPRLPRPRPRPTSCPRP, the “shrunken log2 fold change” value is reported as -0.108.

In the case of RRIRRRPPRLPRPRPRPTSLPRP, the “shrunken log2 fold change” value is reported as 0.0087.

In the case of RRIRRRPPRLPRPRPRPTYHPRP, the “shrunken log2 fold change” value is reported as 0.648.

With RRIRRRPPRLPRPRPRPTYLPRP the “shrunken log2 fold change” value was -0.348.

With RRIRRRPPRLPRPRPRPTYWPRP the “shrunken log2 fold change” value was -0.144.

With RRIRRRPPRLPRPRPRPVATPRP the “shrunken log2 fold change” value was 1.15.

RRIRRRPPRLPRPRPRPVCEPRP was tested, and the “shrunken log2 fold change” value was 0.935.

With RRIRRRPPRLPRPRPRPVDGPRP the “shrunken log2 fold change” value was 0.576.

RRIRRRPPRLPRPRPRPVEVPRP was tested, and the “shrunken log2 fold change” value was 0.057.

With RRIRRRPPRLPRPRPRPVFNPRP the “shrunken log2 fold change” value was 0.056.

With RRIRRRPPRLPRPRPRPVFSPRP the “shrunken log2 fold change” value was -0.0171.

RRIRRRPPRLPRPRPRPVHGPRP was tested, and the “shrunken log2 fold change” value was 0.335.

With RRIRRRPPRLPRPRPRPVHKPRP the “shrunken log2 fold change” value was 0.092.

For RRIRRRPPRLPRPRPRPVHWPRP, the “shrunken log2 fold change” value was 0.00204.

With RRIRRRPPRLPRPRPRPVIHPRP the “shrunken log2 fold change” value was -0.0832.

RRIRRRPPRLPRPRPRPVMFPRP was tested, and the “shrunken log2 fold change” value was 0.155.

For RRIRRRPPRLPRPRPRPVNCPRP, the “shrunken log2 fold change” value was 0.148.

RRIRRRPPRLPRPRPRPVNEPRP was tested, and the “shrunken log2 fold change” value was 0.196.

For RRIRRRPPRLPRPRPRPVNGPRP, the “shrunken log2 fold change” value was 0.0578.

In the case of RRIRRRPPRLPRPRPRPVPQPRP, the “shrunken log2 fold change” value is reported as 0.28.

For RRIRRRPPRLPRPRPRPVPVPRP, the “shrunken log2 fold change” value was 0.128.

RRIRRRPPRLPRPRPRPVREPRP was tested, and the “shrunken log2 fold change” value was 0.0195.

RRIRRRPPRLPRPRPRPVRFPRP was tested, and the “shrunken log2 fold change” value was 0.632.
